# Laboratory results as given in the Human Domainome abundance scans (Beltran et al. 2025).
# ± gives the uncertainty stated by the source.
# Test: abundance fitness (aPCA) (normalised: wild type 0, dead -1); higher = more abundant; growth selection in yeast, the domain comes from the species named
# Settings: Homo sapiens
row,Substance,abundance fitness
1,"DnaJ homolog subfamily B member 1 S16R, P25685",-0.158 ± 0.065
2,"DnaJ homolog subfamily B member 1 T8A, P25685",-0.143 ± 0.079
3,"DnaJ homolog subfamily B member 1 Y24I, P25685",-0.788 ± 0.2
4,"DnaJ homolog subfamily B member 1 L29N, P25685",-0.572 ± 0.3
5,"DnaJ homolog subfamily B member 1 D57A, P25685",-0.269 ± 0.088
6,"DnaJ homolog subfamily B member 1 V54I, P25685",-0.096 ± 0.12
7,"DnaJ homolog subfamily B member 1 K60V, P25685",-0.706 ± 0.11
8,"DnaJ homolog subfamily B member 1 A28R, P25685",0.033 ± 0.09
9,"DnaJ homolog subfamily B member 1 K37G, P25685",-0.319 ± 0.11
10,"DnaJ homolog subfamily B member 1 Y5W, P25685",-0.305 ± 0.22
11,"DnaJ homolog subfamily B member 1 I20L, P25685",-0.143 ± 0.076
12,"DnaJ homolog subfamily B member 1 A49K, P25685",0.13 ± 0.13
13,"DnaJ homolog subfamily B member 1 E50M, P25685",-0.181 ± 0.12
14,"DnaJ homolog subfamily B member 1 N36Y, P25685",-0.195 ± 0.11
15,"DnaJ homolog subfamily B member 1 R25A, P25685",0.011 ± 0.079
16,"DnaJ homolog subfamily B member 1 S16A, P25685",-0.167 ± 0.066
17,"DnaJ homolog subfamily B member 1 A23W, P25685",-0.984 ± 0.09
18,"DnaJ homolog subfamily B member 1 I20E, P25685",-0.956 ± 0.15
19,"DnaJ homolog subfamily B member 1 D34R, P25685",-0.242 ± 0.089
20,"DnaJ homolog subfamily B member 1 Y6F, P25685",-0.162 ± 0.16
21,"DnaJ homolog subfamily B member 1 V54E, P25685",-0.126 ± 0.15

row,Substance,abundance fitness
1,"DnaJ homolog subfamily B member 1 D34M, P25685",-0.053 ± 0.1
2,"DnaJ homolog subfamily B member 1 E18V, P25685",-0.209 ± 0.061
3,"DnaJ homolog subfamily B member 1 K46I, P25685",-0.116 ± 0.15
4,"DnaJ homolog subfamily B member 1 E42P, P25685",0.028 ± 0.087
5,"DnaJ homolog subfamily B member 1 Q7H, P25685",-0.246 ± 0.15
6,"DnaJ homolog subfamily B member 1 P33W, P25685",-0.455 ± 0.096
7,"DnaJ homolog subfamily B member 1 Y24G, P25685",-0.499 ± 0.1
8,"DnaJ homolog subfamily B member 1 A49E, P25685",0.126 ± 0.094
9,"DnaJ homolog subfamily B member 1 E47H, P25685",-0.009 ± 0.11
10,"DnaJ homolog subfamily B member 1 Y24H, P25685",-0.38 ± 0.2
11,"DnaJ homolog subfamily B member 1 R59P, P25685",-0.4 ± 0.15
12,"DnaJ homolog subfamily B member 1 D34A, P25685",0.058 ± 0.14
13,"DnaJ homolog subfamily B member 1 R13I, P25685",-0.221 ± 0.15
14,"DnaJ homolog subfamily B member 1 E42M, P25685",0.038 ± 0.079
15,"DnaJ homolog subfamily B member 1 S56E, P25685",-0.496 ± 0.079
16,"DnaJ homolog subfamily B member 1 K37R, P25685",-0.115 ± 0.066
17,"DnaJ homolog subfamily B member 1 D17P, P25685",-0.18 ± 0.071
18,"DnaJ homolog subfamily B member 1 L55Y, P25685",-0.873 ± 0.16
19,"DnaJ homolog subfamily B member 1 P33L, P25685",-0.091 ± 0.056
20,"DnaJ homolog subfamily B member 1 Q27L, P25685",-0.121 ± 0.094
